From PMC7393505 come the findings set out here.

The target in the assay is 4×SUMO2 linear fusion (C47A) with a single C-terminal cysteine labelled with Alexa488. The experiment in a line: fluorescence polarisation; unlabelled RNF4 titrated against 1 µM 4×SUMO-Alexa488; 50 mM Tris, 150 mM NaCl, 0.5 mM TCEP, pH 7.5; room temperature, 10 min before measuring FP. In general terms: In fluorescence polarisation assays a small probe gives low polarisation when free and higher when bound to something large.

In turn, “RNF4 ∆Basic, full-length (basic charge removed from the arginine-rich motif) (from UniProt O88846 1-194) (enzyme)” had a Kd of 2600 nM.

One may read the Kd as the constant that tells how readily two partners part at equilibrium. The low end stands for a tighter complex, the high end for a looser complex.
